Results on one substance are retold here after publication PMC7181197.

Experiment [1] concerns the target GFP-G3BP1(ΔRG). Put plainly: SEC. On the technique in general: In gel filtration, larger molecules generally elute earlier.
Experiment [2] deals with GFP-G3BP1(ΔRG).

Where two headings read alike, the source gives them in different places.

By stoichiometry N is commonly meant the number of molecules, sites or subunits per partner or assembly. GFP-G3BP1(ΔRG) (domain or fragment): the stoichiometry N in the experiment with GFP-G3BP1(ΔRG) [1] and with GFP-G3BP1(ΔRG) [2] was 2 throughout.
